Source: patent US20120324600A1, “CONSTITUTIVE SYNTHETIC PLANT PROMOTERS AND METHODS OF USE” (SYNGENTA PARTICIPATIONS AG, priority 2010, published 2012)

B1: SEQ ID NO: 5: synthetic plant promoter, subelements eFMV, e35S, iUBQ3, pr35SCMP, eTMV; 1017 bp (nucleic acid)
DNA: AGCTGCTTGTGGGGACCAGACAAAAAAGGAATGGTGCAGAATTGTTAGGCGCACCTACCAAAAGCATCTTTGCCTTTATTGCAAAGATAAAGCAGATTCCTCTAGTACAAGTGGGGAACAAAATAACGTGGAAAAGAGCTGTCCTGACAGCCCACTCACTAATGCGTATGACGAACGCAGTGACGACCACAAAACTCGAGACTTTTCAACAAAGGGTAATATCCGGAAACCTCCTCGGATTCCATTGCCCAGCTATCTGTCACTTTATTGTGAAGATAGTGGAAAAGGAAGGTGGCTCCTACAAATGCCATCATTGCGATAAAGGAAAGGCTATCGTTGAAGATGCCTCTGCCGACAGTGGTCCCAAAGATGGACCCCCACCCACGAGGAGCATCGTGGAAAAAGAAGACGTTCCAACCACGTCTTCAAAGCAAGTGGATTGATGTGATATCTCCACTGACGTAAGGGATGACGAACAATCCCACTATCCTTCTGCAGGTCGACTCTAGAGGATCTTATAAATAGGTATATTTTCTGATTCTTTTTGTTTTTGATTCGTATCTGATCTCCAATTTTTGTTATGTGGATTATTGAATCTTTTGTATAAATTGCTTTTGACAATATTGTTCGTTTCGTCAATCCAGCTTCTAAATTTTGTCCTGATTACTAAGATATCGATTCGTAGTGTTTACATCTGTGTAATTTCTTGCTTGATTGTGAAATTAGGATTTTCAAGGACGATCTATTCAATTTTTGTGTTTTCTTTGTTCGATTCTCTCTGTTTTAGGTTTCTTATGTTTAGATCCGTTTCTCTTTGGTGTTGTTTTGATTTCTCTTACGGCTTTTGATTTGGTATATGTTCGCTGATTGGTTTCTACTTGTTCTATTGTTTTATTTCAGGTGGATCCTATAAATAGGAAGTTCATTTCATTTGGAGAGGAAACCTCGAGTATTTTTACAACAATTACCAACAACAACAAACAACAAACAACATTACAATTACTATTTACAATTACA
modifications: synthetic plant promoter
notes: synthetic plant promoter, subelements eFMV, e35S, iUBQ3, pr35SCMP, eTMV; 1017 bp
B2: SEQ ID NO: 3: synthetic plant promoter, subelements eFMV, e35S, pr35SCMP, eTMV; 625 bp (nucleic acid)
DNA: AGCTGCTTGTGGGGACCAGACAAAAAAGGAATGGTGCAGAATTGTTAGGCGCACCTACCAAAAGCATCTTTGCCTTTATTGCAAAGATAAAGCAGATTCCTCTAGTACAAGTGGGGAACAAAATAACGTGGAAAAGAGCTGTCCTGACAGCCCACTCACTAATGCGTATGACGAACGCAGTGACGACCACAAAACTCGAGACTTTTCAACAAAGGGTAATATCCGGAAACCTCCTCGGATTCCATTGCCCAGCTATCTGTCACTTTATTGTGAAGATAGTGGAAAAGGAAGGTGGCTCCTACAAATGCCATCATTGCGATAAAGGAAAGGCTATCGTTGAAGATGCCTCTGCCGACAGTGGTCCCAAAGATGGACCCCCACCCACGAGGAGCATCGTGGAAAAAGAAGACGTTCCAACCACGTCTTCAAAGCAAGTGGATTGATGTGATATCTCCACTGACGTAAGGGATGACGAACAATCCCACTATCCTTCTGCAGGTCGACTCTAGAGGATCCTATAAATAGGAAGTTCATTTCATTTGGAGAGGAAACCTCGAGTATTTTTACAACAATTACCAACAACAACAAACAACAAACAACATTACAATTACTATTTACAATTACA
modifications: synthetic plant promoter
notes: synthetic plant promoter, subelements eFMV, e35S, pr35SCMP, eTMV; 625 bp

Tests used:
Format in all cases: in vivo
[1] = test system: oat HPPD protein expression; experiment: oat HPPD protein expression by ELISA in T1 transgenic soybean events; settings: inferred from ELISA and mesotrione tolerance of HOM vs HET siblings
Excerpt: To express a synthetic oat (Avena sativa) 4-hydroxyphenylpyruvate dioxygenase (cAvHPPD) in stably transformed soybean, viral transcriptional and translational enhancers, and a minimal promoter were created by PCR or direct DNA synthesis and combined by standard DNA restriction digestion and ligation reactions. A synthetic plant promoter comprising defined components eFMV (SEQ ID NO: 1), eTMV (SEQ ID NO: 2), the Cauliflower Mosaic Virus 35S enhancer region (e35S) and a minimal promoter (pr35SCMP: Cestrum Yellow Leaf Curl virus TATA-box motif; no CAAT 35S-proximal promoter sequence) were combined to create SEQ ID NO: 3. Subsequently, SEQ ID NO: 3 was modified by digestion with a DNA restriction enzyme XhoI to remove defined components e35S, pr35SCMP (including the TATA-box motif) followed by a standard ligation reaction to create SEQ ID NO: 4. […] One skilled in the art would readily recognize other subelements which would be suitable to use.
The plasmids containing the synthetic plant promoter expression cassettes were transformed into soybean using Agrobacterium tumefaciens. […] Expression of cAvHPPD of surviving T0 plants was quantified by ELISA (Engvall E, Perlman P (1971). “Enzyme-linked immunosorbent assay (ELISA). Quantitative assay of immunoglobulin G”. Immunochemistry 8(9):871-874).
(§1) The first generation transgenic soybean events (T1) harboring SEQ ID NO: 3, SEQ ID NO: 4, SEQ ID NO: 5, SEQ ID NO: 6, or SEQ ID NO: 7 were characterized for segregation analysis, oat HPPD protein expression and tolerance to mesotrione herbicide spray. The green leaf tissues from the first trifoliate of five independent events were sampled to determine the segregation ratios (homozygous, heterozygous or null) of the individual seedlings as determined by zygosity Taqman® assays and oat HPPD protein expression by ELISA. At the V2 stage, the seedlings were sprayed with the HPPD inhibiting herbicide mesotrione and tolerance rating determined approximately 10 days post-application.

[2] = test system: transgenic soybean events; experiment: tolerance to mesotrione herbicide spray of T1 transgenic soybean seedlings; settings: sprayed at V2 stage, rated approximately 10 days post-application
Excerpt: as §1

maize = experiment: expression of a heterologous sequence in maize
Excerpt: A similar strategy for building synthetic plant promoters for use in maize was implemented.

Molecule	transgene silencing in HOM plants [1]	tolerance to mesotrione herbicide spray [2]	promotion of expression of a heterologous sequence in maize (maize)
B1	relieve transgene silencing	improved tolerance to the HPPD inhibitor herbicide mesotrione	
B2	indicative of transgene silencing	significant initial damage to the homozygous (HOM) compared to the heterozygous (HET) siblings	successfully used to promote the expression of a heterologous sequence in maize
